Test results published in patent US20250223359A1 (published 2025).
Where a chain is given by its changes, count along the chain named.

B1: Human CD2 (recombinant extracellular domain, Avi-tagged) (receptor)
chain: KEITNALETWGALGQDINLDIPSFQMSDDIDDIKWEKTSDKKKIAQFRKEKETFKEKDTYKLFKNGTLKIKHLKTDDQDIYKVSIYDTKGKNVLEKIFDLKIQERVSKPKISWTCINTTLTCEVMNGTDPELNLYQDGKHLKLSQRVITHKWTTSLSAKFKCTAGNKVSKESSVEPVSCPEKGLD
modifications: site selectively biotinylated during expression (C-terminal Avi-Tag, BirA co-transfection)
notes: Produced in HEK293 cells; also called recombinant human CD2
B2: CD3hi TSP2 (R variant) (other)
heavy: EVQLVQSGAEVKKPGESLKISCKASGYSFTNYWMNWVRQMPGKGLEWMGMIHPSDSEIRLNQKFQGQVTLSVDKSIGTAYMQWSSLKASDTAMYYCSRWYYLSSPMDYWGQGTTVTVSSASTKGPSVFPLAPSSKSTSGGTAALGCLVKDYFPEPVTVSWNSGALTSGVHTFPAVLQSSGLYSLSSVVTVPSSSLGTQTYICNVNHKPSNTKVDKRVEPKSCGGGGSGGGGSEVQLVESGGGLVQPGGSLKLSCAASGFTFNTYAMNWVRQASGKGLEWVGRIRSKYNNYATYYADSVKDRFTISRDDSKSTLYLQMNSLKTEDTAVYYCVRHGNFGNSYVSWFAYWGQGTLVTVSSGGGGSGGGGSGGGGSGGGGSQAVVTQEPSLTVSPGGTVTLTCRSSTGAVTTSNYANWVQQKPGQAPRGLIGGTNKRAPWTPARFSGSLLGDKAALTLSGAQPEDEAEYFCALWYSNLWVFGGGTKLTVLGGGGSDKTHTCPPCPAPELLGGPSVFLFPPKPKDTLMISRTPEVTCVVVAVSHEDPEVKFNWYVDGVEVHNAKTKPREEQYASTYRVVSVLTVLHQDWLNGKEYKCKVSNKALAAPIEKTISKAKGQPREPQVCTLPPSREEMTKNQVSLSCAVKGFYPSDIAVEWESNGQPENNYKTTPPVLDSDGSFFLVSKLTVDKSRWQQGNVFSCSVMHEALHNHYTQKSLSLSPGK
light: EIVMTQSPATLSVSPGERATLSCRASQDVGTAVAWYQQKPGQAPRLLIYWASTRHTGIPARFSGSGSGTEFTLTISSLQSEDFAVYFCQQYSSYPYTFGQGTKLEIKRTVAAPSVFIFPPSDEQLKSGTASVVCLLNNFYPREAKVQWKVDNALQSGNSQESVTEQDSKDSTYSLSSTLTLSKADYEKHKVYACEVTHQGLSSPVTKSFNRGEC
chain: SQQIYGVVYGNVTFHVPSNVPLKEVLWKKQKDKVAELENSEFRAFSSFKNRVYLDTVSGSLTIYNLTSSDEDEYEMESPNITDTMKFFLYVLESGGGGSDKTHTCPPCPAPELLGGPSVFLFPPKPKDTLMISRTPEVTCVVVAVSHEDPEVKFNWYVDGVEVHNAKTKPREEQYASTYRVVSVLTVLHQDWLNGKEYKCKVSNKALAAPIEKTISKAKGQPREPQVYTLPPCREEMTKNQVSLWCLVKGFYPSDIAVEWESNGQPENNYKTTPPVLDSDGSFFLYSKLTVDKSRWQQGNVFSCSVMHEALHNRYTQKSLSLSPGK
notes: also called CD19_NEG218_CD3_16nM-CD58 Trispecific; αCD19(NEG218)-αCD3-CD58IgV
B3: CD3hi TSP1 (R variant) (other)
heavy: QVQLVQSGAEVKKPGASVKVSCKASGYTFTTYWIQWVRQAPGQRLEWMGAVYPGDADTRYTQKFQGRVTLTADRSASTAYMELSSLRSEDTAVYYCGRDAGLEYYALDYWGQGTLVTVSSASTKGPSVFPLAPSSKSTSGGTAALGCLVKDYFPEPVTVSWNSGALTSGVHTFPAVLQSSGLYSLSSVVTVPSSSLGTQTYICNVNHKPSNTKVDKRVEPKSCGGGGSGGGGSEVQLVESGGGLVQPGGSLKLSCAASGFTFNTYAMNWVRQASGKGLEWVGRIRSKYNNYATYYADSVKDRFTISRDDSKSTLYLQMNSLKTEDTAVYYCVRHGNFGNSYVSWFAYWGQGTLVTVSSGGGGSGGGGSGGGGSGGGGSQAVVTQEPSLTVSPGGTVTLTCRSSTGAVTTSNYANWVQQKPGQAPRGLIGGTNKRAPWTPARFSGSLLGDKAALTLSGAQPEDEAEYFCALWYSNLWVFGGGTKLTVLGGGGSDKTHTCPPCPAPELLGGPSVFLFPPKPKDTLMISRTPEVTCVVVAVSHEDPEVKFNWYVDGVEVHNAKTKPREEQYASTYRVVSVLTVLHQDWLNGKEYKCKVSNKALAAPIEKTISKAKGQPREPQVCTLPPSREEMTKNQVSLSCAVKGFYPSDIAVEWESNGQPENNYKTTPPVLDSDGSFFLVSKLTVDKSRWQQGNVFSCSVMHEALHNHYTQKSLSLSPGK
light: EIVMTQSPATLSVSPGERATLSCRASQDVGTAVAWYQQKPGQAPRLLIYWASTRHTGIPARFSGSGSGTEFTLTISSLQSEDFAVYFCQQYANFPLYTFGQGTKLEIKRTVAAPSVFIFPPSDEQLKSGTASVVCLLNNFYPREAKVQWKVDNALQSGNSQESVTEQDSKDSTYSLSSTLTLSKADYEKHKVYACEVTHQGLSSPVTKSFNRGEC
chain: B2 chain
notes: also called CD19_NEG258_CD3_16nM-CD58 Trispecific; αCD19(NEG258)-αCD3(16 nM)-αCD58IgV
B4: CD58 Full ECD (ligand)
chain: SQQIYGVVYGNVTFHVPSNVPLKEVLWKKQKDKVAELENSEFRAFSSFKNRVYLDTVSGSLTIYNLTSSDEDEYEMESPNITDTMKFFLYVLESLPSPTLTCALTNGSIEVQCMIPEHYNSHRGLIMYSWDCPMEQCKRNSTSIYFKMENDLPQKIQCTLSNPLFNTTSSIILTTCIPSSGHSRHRGGGGSHHHHHHHH
B5: CD58_IgV (ligand)
chain: SQQIYGVVYGNVTFHVPSNVPLKEVLWKKQKDKVAELENSEFRAFSSFKNRVYLDTVSGSLTIYNLTSSDEDEYEMESPNITDTMKFFLYVLESGGGGSHHHHHHHH
notes: also called CD58 domain 1; IgV WT
B6: CD58 IgV V54C_G88C (ligand)
chain: B5 chain with V25C, G59C
notes: Disulfide-stabilized variant
B7: CD58 IgV V45C_M114C (ligand)
chain: B5 chain with V16C, M85C
notes: Disulfide-stabilized variant
B8: CD58 IgV V45C_M105C (ligand)
chain: B5 chain with V16C, M76C
notes: Disulfide-stabilized variant

Key:
[1] = biological target: B4; assay: ITC; 100 uM CD2 titrated into 10 uM CD58 variant in HBS
Method: (§1) To ensure the binding affinity remained uncompromised by the additional of the stabilizing disulfide variance, isothermal calorimetry (ITC) was performed on the resulting recombinant CD58 proteins to determine their apparent KD and binding stoicheometry (n) to recombinant human CD2.
(§2) Briefly, recombinant human CD2 and recombinant human CD58 variants were dialyzed into HEPES-buffered saline (HBS). CD2 was diluted to final concentration of 100 μM, CD58 variants were diluted to 10 μM. CD2 was titrated into 10 μM of CD58 variants via multiple injections and ΔH (kcal/mole) determined using a MicroCal VP-ITC isothermal titration calorimeter (Malvern). Titrations of CD2 into HBS were used as a reference and KD and n determined from the resulting data.

[2] = biological target: T1, human CD19 (human, UniProt P15391 20-556); assay: flow cytometry on murine 300.19 cells overexpressing human CD19; serial dilutions; anti-human Fc Alexa-647 secondary
T1 construct: whole, on cells; also called huCD19; hCD19
T1 sequence (looked up): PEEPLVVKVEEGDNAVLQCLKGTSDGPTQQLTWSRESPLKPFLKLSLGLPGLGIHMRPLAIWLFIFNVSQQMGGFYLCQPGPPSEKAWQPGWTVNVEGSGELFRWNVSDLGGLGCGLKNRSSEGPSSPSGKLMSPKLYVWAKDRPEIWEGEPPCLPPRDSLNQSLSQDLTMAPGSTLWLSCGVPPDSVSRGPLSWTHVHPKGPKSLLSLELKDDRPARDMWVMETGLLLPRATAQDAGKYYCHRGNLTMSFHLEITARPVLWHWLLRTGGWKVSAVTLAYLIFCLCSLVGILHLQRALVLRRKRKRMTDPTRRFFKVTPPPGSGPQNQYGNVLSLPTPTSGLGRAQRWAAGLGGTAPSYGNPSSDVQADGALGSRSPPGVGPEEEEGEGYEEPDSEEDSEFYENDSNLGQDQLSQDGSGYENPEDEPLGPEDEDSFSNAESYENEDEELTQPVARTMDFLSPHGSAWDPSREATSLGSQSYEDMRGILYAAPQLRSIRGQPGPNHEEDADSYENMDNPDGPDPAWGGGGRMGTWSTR

[3] = biological target: T1, human CD19; assay: flow cytometry on 300.19 cells overexpressing human CD19 (figure legend)
[4] = biological target: B1; assay: ITC; 100 uM CD2 titrated into 10 uM CD58 variant in HBS
Method: as §1, §2

| Binder | n (binding stoichiometry) [4] | Kd [4] [nM] | further results |
| --- | --- | --- | --- |
| B1 |  |  | Kd [1]: 570 nM |
| B2 |  |  | binding result [2]: binds |
| B3 |  |  | binding result [3]: binds |
| B4 | 0.92 |  |  |
| B5 | 0.96 | 610 |  |
| B6 | 0.83 | 600 |  |
| B7 | 0.88 | 380 |  |
| B8 | 0.97 | 880 |  |
